Numbering of substitutions follows the chain as printed. Numbers in names are those of the source.

For test [1], the target named is T1, Nectin-4 on MDA-MB-175-VII tumor cells (UniProt Q96NY8 32-510, limits assumed).
T1 construct: whole, on cells
T1 sequence (looked up): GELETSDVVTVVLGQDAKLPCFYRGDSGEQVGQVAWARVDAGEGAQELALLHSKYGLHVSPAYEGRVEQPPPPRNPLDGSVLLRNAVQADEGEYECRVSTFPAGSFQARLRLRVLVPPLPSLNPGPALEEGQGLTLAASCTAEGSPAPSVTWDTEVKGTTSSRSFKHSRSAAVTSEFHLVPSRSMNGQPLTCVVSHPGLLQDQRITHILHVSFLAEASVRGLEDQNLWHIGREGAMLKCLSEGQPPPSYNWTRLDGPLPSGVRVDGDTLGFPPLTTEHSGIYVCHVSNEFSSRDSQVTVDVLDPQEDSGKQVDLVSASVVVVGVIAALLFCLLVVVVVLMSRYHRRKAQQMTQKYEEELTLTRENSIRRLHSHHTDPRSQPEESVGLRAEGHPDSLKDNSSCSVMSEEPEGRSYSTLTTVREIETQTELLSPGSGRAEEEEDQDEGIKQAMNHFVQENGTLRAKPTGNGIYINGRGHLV
Description: flow cytometry on MDA-MB-175-VII cells (Nectin-4 expressing tumor cell line), anti-huIgG1-PE secondary, MFI (Geo Mean). How it is done:
(§1) After incubations, cells were washed with FW and then analyzed on a flow cytometer.
A general note: In flow cytometry, cells or beads pass a laser one at a time.

For test [2], the target named is T1, Nectin-4 on MDA-MB-175-VII tumor cells. Briefly: cell-based or functional assay.
The target in test [3] is T2, cynomolgus Nectin-4 on transfected HEK-293 cells (cynomolgus, UniProt A0A2K5WES1 32-510).
T2 construct: whole, on cells; also called HEK-293 cells transfected with cynomolgus Nectin-4
T2 sequence: T1 sequence (looked up) with V39A, I230V, A437T
Description: flow cytometry on HEK-293 cells transfected with cynomolgus Nectin-4, anti-huIgG1-PE secondary, MFI (Geo Mean). As to the method: as §1

The target of test [4] is T3, human Nectin-4 on transfected HEK-293 cells (human, UniProt Q96NY8 32-510).
T3 construct: whole, on cells; also called HEK-293 cells transfected with human Nectin-4; Nectin-4-expressing HEK-293 cells
T3 sequence (looked up): T1 sequence (looked up)
Description: flow cytometry on HEK-293 cells transfected with human Nectin-4, anti-huIgG1-PE secondary, MFI (Geo Mean). As to the method: as §1

Another test concerns the target T4, huNectin-4 ECD-hFc (human, UniProt Q96NY8 32-349).
T4 construct: extracellular domain; Bought (Sino Biological); also called hFc-tagged human Nectin-4 ECD dimeric protein; human Nectin-4 ECD; not shown: human Fc tag
T4 sequence (looked up): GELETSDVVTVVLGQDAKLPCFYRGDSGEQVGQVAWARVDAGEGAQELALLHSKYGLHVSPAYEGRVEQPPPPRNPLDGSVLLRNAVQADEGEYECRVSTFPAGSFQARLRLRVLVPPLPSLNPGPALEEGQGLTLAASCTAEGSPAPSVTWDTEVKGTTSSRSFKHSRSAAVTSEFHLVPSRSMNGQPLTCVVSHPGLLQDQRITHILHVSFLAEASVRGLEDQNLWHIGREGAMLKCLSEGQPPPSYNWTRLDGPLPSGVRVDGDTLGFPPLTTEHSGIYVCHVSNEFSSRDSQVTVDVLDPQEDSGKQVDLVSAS
Description: BLI (Octet Red 96), biotinylated hzD6.2C on streptavidin biosensors, dimeric ECD-hFc in solution, 1:1 model, KD with avidity. How it is done: (§2) Analysis of hzD6.2C monoclonal antibody (mAb) for binding to human Nectin-1, Nectin-2, Nectin-3, and Nectin-4 extracellular domains (ECDs) was performed using Octet® Red 96 instrument (ForteBio, Inc.). Biotinylated hzD6.2C mAb was immobilized on streptavidin biosensors and incubated with hFc-tagged human Nectin-1, -2, -3, and -4 ECD dimeric proteins (Sino Biological) at varying concentrations ranging from 1.2 nM to 300 nM in PBS/1% BSA/0.2% Tween 20. The experimental measurements were performed as follows: (1) baseline acquisition (30 s); (2) biotinylated hzD6.2C mAb loading onto streptavidin biosensor (120 s); (3) second baseline acquisition (30 s); (4) association of interacting dimeric Nectin 1/2/3/4 ECD proteins for kₒₙ measurement (90 s); and (5) dissociation of interacting dimeric ECDs for koff measurement (180 s). The interacting dimeric Nectin ECD proteins were used at 5-6 concentrations of 3-fold concentration series. Data were analyzed using Octet® Data Analysis Sofware 9.0 (ForteBio, Inc.) and fitted to the 1:1 binding model. Equilibrium dissociation constants (KD) were calculated by the ratio of […].
For orientation: In BLI a coated tip is dipped into the sample, and binding shifts an interference pattern.

Another test deals with T5, huNectin-3 ECD-hFc (human, UniProt Q9NQS3 58-404).
T5 construct: extracellular domain; Bought (Sino Biological); also called hFc-tagged human Nectin-3 ECD dimeric protein; not shown: human Fc tag
Briefly: BLI (Octet Red 96), biotinylated hzD6.2C on streptavidin biosensors, dimeric ECD-hFc in solution. How it is done:
as §2

A further test has as its target T6, huNectin-1 ECD-hFc (human, UniProt Q15223 31-355).
T6 construct: extracellular domain; Bought (Sino Biological); also called hFc-tagged human Nectin-1 ECD dimeric protein; not shown: human Fc tag
T6 sequence (looked up): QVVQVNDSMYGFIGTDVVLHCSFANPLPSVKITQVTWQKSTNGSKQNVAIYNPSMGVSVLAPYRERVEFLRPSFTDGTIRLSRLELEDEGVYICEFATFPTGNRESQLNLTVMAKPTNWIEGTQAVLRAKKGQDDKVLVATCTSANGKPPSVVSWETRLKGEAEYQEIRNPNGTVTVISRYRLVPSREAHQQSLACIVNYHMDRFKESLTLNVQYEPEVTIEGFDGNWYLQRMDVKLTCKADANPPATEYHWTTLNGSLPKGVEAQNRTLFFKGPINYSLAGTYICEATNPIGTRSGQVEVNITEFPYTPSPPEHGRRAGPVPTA
The test is described as above. How it is done:
as §2

In a further test the target is T7, huNectin-2 ECD-hFc (human, UniProt Q92692 32-360).
T7 construct: extracellular domain; Bought (Sino Biological); also called hFc-tagged human Nectin-2 ECD dimeric protein; not shown: human Fc tag
T7 sequence (looked up): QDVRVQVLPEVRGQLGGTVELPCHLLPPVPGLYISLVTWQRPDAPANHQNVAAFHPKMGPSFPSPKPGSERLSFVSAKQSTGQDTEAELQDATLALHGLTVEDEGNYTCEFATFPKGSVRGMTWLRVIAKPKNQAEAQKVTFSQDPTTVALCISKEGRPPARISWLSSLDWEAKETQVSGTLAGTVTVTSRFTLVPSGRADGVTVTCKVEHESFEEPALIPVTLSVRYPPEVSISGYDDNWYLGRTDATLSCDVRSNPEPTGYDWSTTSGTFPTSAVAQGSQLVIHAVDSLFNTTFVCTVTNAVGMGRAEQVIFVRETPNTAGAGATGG
The test is described as above. How it is done:
as §2

T5 sequence (Q9NQS3 58-404): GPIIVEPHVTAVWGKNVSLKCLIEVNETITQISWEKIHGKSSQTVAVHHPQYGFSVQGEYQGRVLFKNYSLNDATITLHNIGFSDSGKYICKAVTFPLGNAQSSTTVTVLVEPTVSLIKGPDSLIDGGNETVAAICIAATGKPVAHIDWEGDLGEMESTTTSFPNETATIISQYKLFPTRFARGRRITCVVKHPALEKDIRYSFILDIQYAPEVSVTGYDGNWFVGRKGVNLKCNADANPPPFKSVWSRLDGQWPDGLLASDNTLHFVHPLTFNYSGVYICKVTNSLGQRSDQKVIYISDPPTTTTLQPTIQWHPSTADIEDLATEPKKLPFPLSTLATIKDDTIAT

B1: D6C IgG1-Compound 2.14 (parental antibody TLR8 agonist conjugate) (antibody, V domains shown)
VH: EVMLVESGGALVKPGGSLKLSCVASGFTFSNYDMSWVRQTPEKRLEWVATISSGGSYTYYVDSVKGRFTISRDNARNTLHLQMSSLRSKDTAMYYCARQELGSYYAMDYWGQGTSVTVSS
VL: DVVMTQTPLSLPVSLGDQASISCRSSQSIVHSNGNTYLEWYLQKPGQSPKLLIYKVSNRFSGVPDRFSGSGSGTDFTLKISRVEAEDLGVYYCFQGSHVPYTFGGGTKLEIK
notes: IgG1
The term EC50 denotes the concentration at which the effect is half-maximal. Read a low EC50 as a more potent agent. In the case of B1, the EC50 in test [1] is 0.011 µg/mL; in test [3], 0.019 µg/mL; in test [4] it was 0.049 µg/mL. Moreover, the “TNF-α production from human PBMCs co-cultured with MDA-MB-175-VII cells, EC50” value (shortened to “TNF-α production”) in test [2] amounted to 830 pM.

B2: D6C parental chimeric anti-Nectin-4 antibody (D6C IgG1) (antibody, V domains shown)
VH: B1 VH
VL: B1 VL
notes: Called the parental chimeric antibody; also called chimeric D6C
Take B2: the figures for the EC50 in test [1], in test [3] and in test [4] were 0.01 µg/mL, 0.018 µg/mL and 0.03 µg/mL, respectively.

B3: hzD6.2C-Compound 2.14 (anti-Nectin-4-TLR8 agonist immunoconjugate) (antibody, V domains shown)
VH: EVQLVESGGGLVQPGGSLRLSCAASGFTFSNYDMSWVRQAPGKGLEWVATISSGGSYTYYVDSVKGRFTISRDNAKNSLYLQMNSLRAEDTAVYYCARQELGSYYAMDYWGQGTTVTVSS
VL: DIVMTQTPLSLPVTPGEPASISCRSSQSIVHSNANTYLEWYLQKPGQSPQLLIYKVSNRFSGVPDRFSGSGSGTDFTLKISRVEAEDVGVYYCFQGSHVPYTFGGGTKVEIKR
notes: hzD6.2C conjugated to linker-TLR8 agonist Compound 2.14
B3: the EC50 came to 0.0095 µg/mL in test [1], 0.016 µg/mL in test [3] and 0.034 µg/mL in test [4]. Besides, the “TNF-α production” value in test [2] was found to be 370 pM.

B4: humanized D6C mAb with hzD6.2C VL (G34A), human IgG1 / human kappa (antibody, V domains shown)
VH: B3 VH
VL: B3 VL
notes: also called hzD6.2C mAb
As to B4, the EC50 in test [1] was 0.012 µg/mL; in test [3] it was 0.017 µg/mL; in test [4], 0.014 µg/mL. In the test with huNectin-4 ECD-hFc, this molecule yielded a Kd of less than 1 pM. In addition, the binding result with huNectin-3 ECD-hFc, in the test with huNectin-1 ECD-hFc and with huNectin-2 ECD-hFc was “no binding (tested: 1.2 nM to 300 nM)” in each case.

B5: humanized D6C mAb with hzD6.1C VL (I2V), human IgG1 / human kappa (antibody, V domains shown)
VH: B3 VH
VL: B3 VL with I2V, A34G
notes: also called hzD6.IC
On to B5, for which the figures for the EC50 in test [1], in test [3] and in test [4] were 0.0097 µg/mL, 0.016 µg/mL and 0.02 µg/mL, respectively.

B6: hzD6.1C-Compound 2.14 (anti-Nectin-4-TLR8 agonist immunoconjugate) (antibody, V domains shown)
VH: B3 VH
VL: B3 VL with I2V, A34G
notes: hzD6.1C conjugated to linker-TLR8 agonist Compound 2.14
Consider B6, for which the EC50 in test [1] was found to be 0.0086 µg/mL; in test [3], 0.023 µg/mL; in test [4], 0.069 µg/mL. In test [2], the “TNF-α production” value amounted to 330 pM.

These data come from patent US20210275683A1 (SILVERBACK THERAPEUTICS, published 2021).
